One data set has as its target T1, rTsGS (Trichinella spiralis, UniProt A0ABR3KY69).
T1 construct: gene TSPI_06310
T1 sequence (A0ABR3KY69 1-365): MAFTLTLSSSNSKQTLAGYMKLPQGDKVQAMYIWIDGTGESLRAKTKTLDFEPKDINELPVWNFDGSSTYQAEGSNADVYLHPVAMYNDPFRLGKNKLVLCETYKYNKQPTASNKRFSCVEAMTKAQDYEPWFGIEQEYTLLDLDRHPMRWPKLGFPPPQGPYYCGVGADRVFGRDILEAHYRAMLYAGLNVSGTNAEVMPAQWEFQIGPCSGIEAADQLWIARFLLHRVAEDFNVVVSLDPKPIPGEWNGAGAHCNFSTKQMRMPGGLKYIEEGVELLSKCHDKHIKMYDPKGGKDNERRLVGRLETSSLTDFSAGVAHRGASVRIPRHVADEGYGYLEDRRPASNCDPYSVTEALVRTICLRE
Put plainly: phosphate release, absorbance at […] nm, with inhibitor. It is filed as biochemical. The following applies: substrates Glu, ATP, NH4+.

The subject of a further data set is N. Nature of the data set: purified protein. The following applies: pH 7.0, 45 °C, 100 mM Mg2+, glutamate and ATP as co-substrates, range 0.5-5 mM.
Another data set deals with N[C@@H](CCC(=O)O)C(=O)O. Nature of the data set: purified protein. Particulars: pH 7.0, 45 °C, 100 mM Mg2+, ATP and NH4+ as co-substrates, range 0.5-5 mM. The format is biochemical, Trichinella spiralis.

The values that follow come from PMC8488193, “Characterization of a Novel Glutamine Synthetase From Trichinella spiralis and Its Participation in Larval Acid Resistance, Molting, and Development” (Frontiers in Cell and Developmental Biology, 2021).

For the molecule `CP(=O)(O)CCC(N)C(=O)O` (stereo not drawn) [glufosinate], the “inhibition at 10% glufosinate” value against rTsGS was “Both EDTA and glufosinate could inhibit the rTsGS enzyme activity”. The Km is the substrate concentration at which the rate is half of its maximum. rTsGS (Trichinella spiralis): the figures for the Km in the data set with N and in the data set on N[C@@H](CCC(=O)O)C(=O)O were 170 µM and 200 µM, respectively.
